From patent publication US20090035266A1

Biological target: HLA-A2 molecules on T2 cells (human)
Experiment: T2 cell HLA-A2 upregulation assay, flow cytometry, peptide 25 µg/ml; negative control
Conditions: remark: other sources report otherwise

Which T2 binding (MFI) does the source give for HLFGYSWYK [CAP-7 peptide] here?
Its T2 binding (MFI) is 260 MFI.
